Measurements taken from patent US20250042994A1 (HAINAN SIMCERE ZAIMING PHARMACEUTICAL, published 2025).

T1: murine CD19 protein (murine, UniProt P25918 17-287, limits assumed)
T1 construct: bought protein; also called commercial murine CD19
T1 sequence (looked up): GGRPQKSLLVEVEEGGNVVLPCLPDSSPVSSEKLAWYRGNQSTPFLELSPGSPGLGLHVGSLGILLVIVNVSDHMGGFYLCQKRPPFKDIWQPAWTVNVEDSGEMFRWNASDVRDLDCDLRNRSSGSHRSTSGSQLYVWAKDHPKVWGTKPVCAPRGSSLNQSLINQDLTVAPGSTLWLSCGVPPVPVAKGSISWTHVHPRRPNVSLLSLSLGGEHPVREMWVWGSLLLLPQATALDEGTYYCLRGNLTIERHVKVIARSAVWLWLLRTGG

T2: human CD19 exon1-3-his protein (human, UniProt P15391 20-186, limits assumed)
T2 construct: made in HEK293E cells; also called membrane-distal end; not shown: His tag
T2 sequence (looked up): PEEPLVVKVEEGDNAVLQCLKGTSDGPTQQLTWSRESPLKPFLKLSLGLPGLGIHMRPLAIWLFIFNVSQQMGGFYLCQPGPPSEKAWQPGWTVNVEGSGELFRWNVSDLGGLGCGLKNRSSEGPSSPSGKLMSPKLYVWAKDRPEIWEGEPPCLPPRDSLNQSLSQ


Columns and labels:
murine CD19 protein = target: T1, murine CD19 protein; test: ELISA
Protocol: Human CD19-his protein (purchased from ACROBiosystems, catalog number: CD9-H52H2) was diluted with PBS to a final concentration of 4 μg/mL, and then added to a 96-well ELISA plate at 100 μl/well. The plate was sealed with a plastic film and incubated overnight at 4° C., the plate was washed 2 times with PBS the next day, and then a blocking solution [PBS+2% (w/w) BSA] was added for blocking at room temperature for 2 h. The blocking solution was poured off, and 100 nM gradiently diluted CD19 chimeric antibody or control antibody was added at 50 μl/well. After incubation at 37° C. for 2 h, the plate was washed 3 times with PBS. […] TMB substrate was added at 50 μl/well, and incubated at room temperature for 10 min, and then a stop solution (1.0 N HCl) was added at 50 μl/well. The OD450 nm values were read by an ELISA microplate reader (Multimode Plate Reader, EnSight, purchased from Perkin Elmer).
In order to detect the species cross-binding activity of the chimeric antibodies, an ELISA plate was coated with commercial murine CD19 (ACROBiosystems, catalog number: 50510-M08H) and monkey CD19 (ACROBiosystems, catalog number: 90051-C08H), respectively, and the ELISA detection was performed according to the method in example 5.1. […]

[1] = target: T2, human CD19 exon1-3-his protein; test: ELISA, coated at 2 ug/mL

binding result (murine CD19 protein) | binding result [1] | Binder
no binding | no binding | F3.121.4-L3H3 (antibody, mouse IgG1, kappa, murine IgG1 constant regions; also called humanized antibody of F3.121.4) heavy: EVQLVQSGAEVKKPGASVKVSCKASGYTFTNYWMHWVRQRPGQGLEWMGEIDPSDNYANYNQEFQGRVTITVDKSASTAYMELSSLRSEDTAVYYCARHDGYFGALDYWGQGTTVTVSSAKTTPPSVYPLAPGSAAQTNSMVTLGCLVKGYFPEPVTVTWNSGSLSSGVHTFPAVLQSDLYTLSSSVTVPSSTWPSETVTCNVAHPASSTKVDKKIVPRDCGCKPCICTVPEVSSVFIFPPKPKDVLTITLTPKVTCVVVDISKDDPEVQFSWFVDDVEVHTAQTQPREEQFNSTFRSVSELPIMHQDWLNGKEFKCRVNSAAFPAPIEKTISKTKGRPKAPQVYTIPPPKEQMAKDKVSLTCMITDFFPEDITVEWQWNGQPAENYKNTQPIMDTDGSYFVYSKLNVQKSNWEAGNTFTCSVLHEGLHNHHTEKSLSHSPGK light: EIVLTQSPDFQSVTPKEKVTITCSASSSISSNYLHWYQQKPDQSPKFLIYRTSNLASGVPSRFSGSGSGTDFTLTINSLEAEDAATYYCQQASSIPRMFTFGQGTKLEIKRADAAPTVSIFPPSSEQLTSGGASVVCFLNNFYPKDINVKWKIDGSERQNGVLNSWTDQDSKDSTYSMSSTLTLTKDEYERHNSYTCEATHKTSTSPIVKSFNRNEC
no binding | no binding | F3.121.4-L2H1 (antibody, mouse IgG1, kappa, V domains shown, murine IgG1 constant regions; also called humanized antibody of F3.121.4) VH: EVQLVQSGAEVKKPGASVKVSCKASGYTFTNYWMHWVRQAPGQRLEWMGEIDPSDNYANYNQEFQGRVTITVDKSASTAYMELSSLRSEDTAVYYCARHDGYFGALDYWGQGTTVTVSS VL: EIVLTQSPDFQSVTPKEKVTITCSASSSISSNYLHWYQQKPDQSPKLLIKRTSNLASGVPSRFSGSGSGTDFTLTINSLEAEDAATYYCQQASSIPRMFTFGQGTKLEIKR
no binding | no binding | F3.121.4-L2H4 (antibody, mouse IgG1, kappa, murine IgG1 constant regions; also called humanized antibody of F3.121.4) heavy: EVQLQQSGAEVKKPGASVKVSCKASGYTFTNYWMHWVRQRPGQGLEWMGEIDPSDNYANYNQEFQGRVTITVDKSASTAYMELSSLRSEDTAVYYCARHDGYFGALDYWGQGTTVTVSSAKTTPPSVYPLAPGSAAQTNSMVTLGCLVKGYFPEPVTVTWNSGSLSSGVHTFPAVLQSDLYTLSSSVTVPSSTWPSETVTCNVAHPASSTKVDKKIVPRDCGCKPCICTVPEVSSVFIFPPKPKDVLTITLTPKVTCVVVDISKDDPEVQFSWFVDDVEVHTAQTQPREEQFNSTFRSVSELPIMHQDWLNGKEFKCRVNSAAFPAPIEKTISKTKGRPKAPQVYTIPPPKEQMAKDKVSLTCMITDFFPEDITVEWQWNGQPAENYKNTQPIMDTDGSYFVYSKLNVQKSNWEAGNTFTCSVLHEGLHNHHTEKSLSHSPGK light: EIVLTQSPDFQSVTPKEKVTITCSASSSISSNYLHWYQQKPDQSPKLLIKRTSNLASGVPSRFSGSGSGTDFTLTINSLEAEDAATYYCQQASSIPRMFTFGQGTKLEIKRADAAPTVSIFPPSSEQLTSGGASVVCFLNNFYPKDINVKWKIDGSERQNGVLNSWTDQDSKDSTYSMSSTLTLTKDEYERHNSYTCEATHKTSTSPIVKSFNRNEC

Second part, the binder before the results:

Binder | binding result (murine CD19 protein) | binding result [1]
F3.121.4-L1H4 (antibody, mouse IgG1, kappa, murine IgG1 constant regions; also called humanized antibody of F3.121.4) heavy: EVQLQQSGAEVKKPGASVKVSCKASGYTFTNYWMHWVRQRPGQGLEWMGEIDPSDNYANYNQEFQGRVTITVDKSASTAYMELSSLRSEDTAVYYCARHDGYFGALDYWGQGTTVTVSSAKTTPPSVYPLAPGSAAQTNSMVTLGCLVKGYFPEPVTVTWNSGSLSSGVHTFPAVLQSDLYTLSSSVTVPSSTWPSETVTCNVAHPASSTKVDKKIVPRDCGCKPCICTVPEVSSVFIFPPKPKDVLTITLTPKVTCVVVDISKDDPEVQFSWFVDDVEVHTAQTQPREEQFNSTFRSVSELPIMHQDWLNGKEFKCRVNSAAFPAPIEKTISKTKGRPKAPQVYTIPPPKEQMAKDKVSLTCMITDFFPEDITVEWQWNGQPAENYKNTQPIMDTDGSYFVYSKLNVQKSNWEAGNTFTCSVLHEGLHNHHTEKSLSHSPGK light: EIVLTQSPATLSLSPGERATLSCSASSSISSNYLHWYQQKPGQAPRFLIYRTSNLASGIPARFSGSGSGTDFTLTISSLEPEDFAVYYCQQASSIPRMFTFGQGTKLEIKRADAAPTVSIFPPSSEQLTSGGASVVCFLNNFYPKDINVKWKIDGSERQNGVLNSWTDQDSKDSTYSMSSTLTLTKDEYERHNSYTCEATHKTSTSPIVKSFNRNEC | no binding | no binding
F3.121.4-L2H2 (antibody, mouse IgG1, kappa, V domains shown, murine IgG1 constant regions; also called humanized antibody of F3.121.4) VH: EVQLVQSGAEVKKPGASVKVSCKASGYTFTNYWMHWVRQAPGQGLEWMGEIDPSDNYANYNQEFQGRVTITVDKSASTAYMELSSLRSEDTAVYYCARHDGYFGALDYWGQGTTVTVSS VL: EIVLTQSPDFQSVTPKEKVTITCSASSSISSNYLHWYQQKPDQSPKLLIKRTSNLASGVPSRFSGSGSGTDFTLTINSLEAEDAATYYCQQASSIPRMFTFGQGTKLEIKR | no binding | no binding
F3.121.4-L3H1 (antibody, mouse IgG1, kappa, V domains shown, murine IgG1 constant regions; also called humanized antibody of F3.121.4) VH: EVQLVQSGAEVKKPGASVKVSCKASGYTFTNYWMHWVRQAPGQRLEWMGEIDPSDNYANYNQEFQGRVTITVDKSASTAYMELSSLRSEDTAVYYCARHDGYFGALDYWGQGTTVTVSS VL: EIVLTQSPDFQSVTPKEKVTITCSASSSISSNYLHWYQQKPDQSPKFLIYRTSNLASGVPSRFSGSGSGTDFTLTINSLEAEDAATYYCQQASSIPRMFTFGQGTKLEIKR | no binding | no binding
F3.121.4-L3H4 (antibody, mouse IgG1, kappa, murine IgG1 constant regions; also called humanized antibody of F3.121.4) heavy: EVQLQQSGAEVKKPGASVKVSCKASGYTFTNYWMHWVRQRPGQGLEWMGEIDPSDNYANYNQEFQGRVTITVDKSASTAYMELSSLRSEDTAVYYCARHDGYFGALDYWGQGTTVTVSSAKTTPPSVYPLAPGSAAQTNSMVTLGCLVKGYFPEPVTVTWNSGSLSSGVHTFPAVLQSDLYTLSSSVTVPSSTWPSETVTCNVAHPASSTKVDKKIVPRDCGCKPCICTVPEVSSVFIFPPKPKDVLTITLTPKVTCVVVDISKDDPEVQFSWFVDDVEVHTAQTQPREEQFNSTFRSVSELPIMHQDWLNGKEFKCRVNSAAFPAPIEKTISKTKGRPKAPQVYTIPPPKEQMAKDKVSLTCMITDFFPEDITVEWQWNGQPAENYKNTQPIMDTDGSYFVYSKLNVQKSNWEAGNTFTCSVLHEGLHNHHTEKSLSHSPGK light: EIVLTQSPDFQSVTPKEKVTITCSASSSISSNYLHWYQQKPDQSPKFLIYRTSNLASGVPSRFSGSGSGTDFTLTINSLEAEDAATYYCQQASSIPRMFTFGQGTKLEIKRADAAPTVSIFPPSSEQLTSGGASVVCFLNNFYPKDINVKWKIDGSERQNGVLNSWTDQDSKDSTYSMSSTLTLTKDEYERHNSYTCEATHKTSTSPIVKSFNRNEC | no binding | no binding
F3.121.4-L3H2 (antibody, mouse IgG1, kappa, V domains shown, murine IgG1 constant regions; also called humanized antibody of F3.121.4) VH: EVQLVQSGAEVKKPGASVKVSCKASGYTFTNYWMHWVRQAPGQGLEWMGEIDPSDNYANYNQEFQGRVTITVDKSASTAYMELSSLRSEDTAVYYCARHDGYFGALDYWGQGTTVTVSS VL: EIVLTQSPDFQSVTPKEKVTITCSASSSISSNYLHWYQQKPDQSPKFLIYRTSNLASGVPSRFSGSGSGTDFTLTINSLEAEDAATYYCQQASSIPRMFTFGQGTKLEIKR | no binding | no binding
F3.121.4-L2H3 (antibody, mouse IgG1, kappa, murine IgG1 constant regions; also called humanized antibody of F3.121.4) heavy: EVQLVQSGAEVKKPGASVKVSCKASGYTFTNYWMHWVRQRPGQGLEWMGEIDPSDNYANYNQEFQGRVTITVDKSASTAYMELSSLRSEDTAVYYCARHDGYFGALDYWGQGTTVTVSSAKTTPPSVYPLAPGSAAQTNSMVTLGCLVKGYFPEPVTVTWNSGSLSSGVHTFPAVLQSDLYTLSSSVTVPSSTWPSETVTCNVAHPASSTKVDKKIVPRDCGCKPCICTVPEVSSVFIFPPKPKDVLTITLTPKVTCVVVDISKDDPEVQFSWFVDDVEVHTAQTQPREEQFNSTFRSVSELPIMHQDWLNGKEFKCRVNSAAFPAPIEKTISKTKGRPKAPQVYTIPPPKEQMAKDKVSLTCMITDFFPEDITVEWQWNGQPAENYKNTQPIMDTDGSYFVYSKLNVQKSNWEAGNTFTCSVLHEGLHNHHTEKSLSHSPGK light: EIVLTQSPDFQSVTPKEKVTITCSASSSISSNYLHWYQQKPDQSPKLLIKRTSNLASGVPSRFSGSGSGTDFTLTINSLEAEDAATYYCQQASSIPRMFTFGQGTKLEIKRADAAPTVSIFPPSSEQLTSGGASVVCFLNNFYPKDINVKWKIDGSERQNGVLNSWTDQDSKDSTYSMSSTLTLTKDEYERHNSYTCEATHKTSTSPIVKSFNRNEC | no binding | no binding
